The assay has as its target SARS-CoV-2 spike RBD (Wuhan-Hu-1) (Severe acute respiratory syndrome …, UniProt P0DTC2). In words: SPR.

B1: COVIC-333 (antibody, V domains shown)
VH: QVQLVQSGAEVKKPGSSVRVSCKASGGTFISYTFNWVRQAPGQGLEWMGRIIPIFGIVNYAQKFQGRVTIAADKSTSTAYMELSSLRSEDTAMYYCATATVDYDSGEEQSSFDPWGQGTLVTVSS
VL: EIVLTQSPGTLSLSPGERATLSCRASQSVSSSYLAWYQQKAGQTPRLLIYAASSRATGVPDRFSGSGSGTDFTLTISRLEAEDFAVYYCQQSWTFGQGTKVEIK
For the molecule B1, the affinity, expressed as Kd, was 0.0111 nM.

B2: COVIC-156 (antibody, V domains shown)
VH: EVQLVESGGGLIQPGGSLRLSCAASGVTVSSNYMNWVRQAPGKGLEWVSVIYSGGSTYYADSVKGRFTISRDNSKNTLFLQMNSLRAEDSAVYYCARDLGPYGVDVWGQGTTVTVSS
VL: DIQLTQSPSFLSASVGDRVTITCWASQGISSYLAWYQQKPGKAPKLLIYAASTLQSGVPSRFSGSGSGTEFTLTISSLQPEDFATYYCQELNSYPLTFGQGTRLEIKR
Consider B2, for which the affinity, expressed as Kd, was 0.446 nM.

B3: COVIC-392 (antibody, V domains shown)
VH: QVQLLESGGGLVQPGRSLRLSCAASGFTFDDYAMHWVRQPPGKGLEWVSGSSWNSGSVVYADSVKGRFTISRDSAKNSLHLQMNSLRVEDTALYYCAKAVDPTRGSYSPDYGFDIWGQGTMVTVS
VL: not shown
With B3, binding was put at a Kd of 0.0871 nM.

B4: COVIC-238 (antibody, V domains shown)
VH: QVQLVQSGSELKKPGASVKVSCKASGYTFTTYVMNWVRQAPGQGLEWMGWINTNTGNPTYAQGFTGRFVFSLDTSVSTASLQISSLKAEDTAVYYCSSEITTLGGMDVWGQGTTVTVSS
VL: ASYVLTQPPSVSVAPGKTARITCGGNNIGSKSVHWYQQKPGQAPVLVIYYDSDRPSGIPERFSGSNSGNTATLTISGVEAGDEADYYCQVWDSISDHRVFGGGTKLTVLG
Turning to B4, the equilibrium dissociation constant (Kd) – broadly, the equilibrium constant for the complex coming apart – worked out at 0.873 nM.

B5: COVIC-322 (antibody)
chain 1: EVQLLESGGGLVQPGGSLRLSCAASGRTFSEYAMGWFRQAPGKGLEFVSTISWSGGSTYYADSVKGRFTISRDNSKNTLYLQMNSLRAEDTAVYYCAAAGLGTVVSEWDYDYDYWGQGTLVTVSSGGGGSGGGGSASTKGPSVFPLAPSSKSTSGGTAALGCLVKDYFPEPVTVSWNSGALTSGVHTFPAVLQSSGLYSLSSVVTVPSSSLGTQTYICNVNHKPSNTKVDKKVEPKSCDKTHTAPELLGGPSVFLFPPKPKDTLMISRTPEVTCVVVDVSHEDPEVKFNWYVDGVEVHNAKTKPREEQYNSTYRVVSVLTVLHQDWLNGKEYKCKVSNKALPAPIEKTISKAKGQPREPQVYTLPPSRDELTKNQVSLTCLVKGFYPSDIAVEWESNGQPENNYKTTPPVLDSDGSFFLYSKLTVDKSRWQQGNVFSCSVMHEALHNHYTQKSLSLSPGKKKKPLDGEYFTLQIRGRERFEMFRELNEALELKDAQAGKEPG
chain 2: EVQLLESGGGLVQPGGSLRLSCAASGRTFSEYAMGWFRQAPGKGLEFVSTISWSGGSTYYADSVKGRFTISRDNSKNTLYLQMNSLRAEDTAVYYCAAAGLGTVVSEWDYDYDYWGQGTLVTVSSGGGGSGGGGSKRTVAAPSVFIFPPSDEQLKSGTASVVCLLNNFYPREAKVQWKVDNALQSGNSQESVTEQDSKDSTYSLSSTLTLSKADYEKHKVYACEVTHQGLSSPVTKSFNRGEC
B5 registered a Kd of 30.2 nM.

B6: COVIC-336 (antibody, V domains shown)
VH: QITLKESGPTLVKPTQTLTLTCTFSGFSLSSGGVGVGWIRQPPGKALEWLALIYWDDDKRYRPSLKSRLTITRDTSTNQVVLTMTNMDPVDTATYFCARHQIATVFDHWGQGTLVTVSS
VL: QSALTQPASVSGSPGQSITISCTGTSSDVGGYNYVSWYQQHPGKAPKLMIYEVSNRPSGVSSRFSGSKSGNTASLTISGLQAEDEADYYCSSYTRSSPLVAFGGGTKVTVL
As for B6, the dissociation constant (Kd) was found to be 2.14 nM.

B7: COVIC-312 (antibody)
chain 1: QVQLVQSGAEVKKPGSSVKVSCKASGGTFGISWVRQAPGQGLEWMGRIIPILGTANHAQKFQGRVTITADKSTGTVYMELSSLRSEDTAVYYCARDGDSGSYYETLGFDYWGQGTLVTVSSGGGGSGGGGSGGGGEVQLVESGGGLVKPGGSLRLSCAASGFTFSPYSMNWVRQAPGKGLEWVSSISVSNIYTYYADSVKGRFTISRDNAKNSLYLQMNSLRAEDTAIYYCARDLKKGGIQYDAFDIWGQGTVVTVSS
chain 2: QSALTQPPSASGSPGQSVTISCTGTSSDVGGYNYVSWYQQHPGKAPKLMIYEVNKRPSGVPDRFSGSKSGNTASLTVSGLQAEDEADYYCSSYAGSNNLVFGGGTKLTVLGGGGSGGGGSGGGGEIVLTQSPATLSLSPGERATLSCRASQSVNDYLAWYQQKPGQAPRLLIYDASNRATGFPARFSGSGSGTDFTLTISSLEPEDFAVYYCQQRSNWPPTFGQGTRLEIK
B7 yielded a dissociation constant Kd of 0.347 nM.

B8: COVIC-305 (antibody, V domains shown)
VH: QVQLVQSGAEVKKPGSSVRVSCKVSGYTFTGYYMHWVRQAPGQGLEWMGIINPSGGSTSYAQKFQGRVTMTRDTSTSTVYMELSSLRSEDTAVYYCARVRVGASDAFDIWGQGTMVTVSS
VL: SYVLTQPPSVSVAPGQTARITCGGNNIGSKSVHWYQQKPGQAPVLVVYDDSDRPSGIPERFSGSNSGNTATLIISRVEAGDEADYYCQVWDSSSVHYVFGTGTKLTVLG
B8: binding was characterised by a dissociation constant (Kd) of 7.27 nM.

B9: COVIC-265 (antibody, V domains shown)
VH: QVQLVESGGGLVQPGGSLRLSCTVSGIDLSSYAMGWVRQAPGKGLEYIGIISGSGSTDYANWAKGRFTISRDNSKNTLYLQMNSLRAEDTAVYYCARAGYGVYGYAKYYGMDPWGQGTLVTVSS
VL: DIQMTQSPSSLSASVGDRVTITCKASEDIHYGLNWYQQKPGKAPKLLIYGATTLESGVPSRFSGSGSGTDFTLTISSLQPEDFATYYCQQGYSTPLTFGGGTKVEIK
As for B9, binding was put at a Kd of 1.55 nM.

B10: COVIC-162 (antibody, V domains shown)
VH: QLQLQESGPGLVKPSETLSLTCTVSGGSISNSNYYWGWIRQPPGKGLEWIGSIYYSGRTYYNPSLKSRVTISVDTSKNQFSLKLSSVTAADTAVYYCARMGLLWFGEFYGMDVWGQGTTVTVSS
VL: DIQMTQSPSSLSASVGDRVTITCRASQGISSWLAWYQQKPEKAPKSLIYDASSLQRGVPSRFSGSGSGTDFTLTISSLQPEDFASYYCQQYNSYPLTFGGGTRVEIKR
As to B10, the Kd was 191 nM.

B11: COVIC-22 (antibody, V domains shown)
VH: EVQLLESGGGLVQPGGSLRLSCAASGFTFSRHAMNWVRQAPGKGLEWVSGISGSGDETYYADSVKGRFTISRDNSKNTLYLQMNSLRAEDTAVYYCARDLPASYYDSSGYYWHNGMDVWGQGTLVTVSS
B11 gave an equilibrium dissociation constant (Kd) of 0.414 nM.

B12: COVIC-121 (antibody)
chain: QVQLQESGGGLVQAGGSLRLSCAASGRTFSEYAMGWFRQAPGKEREFVATISWSGGSTYYTDSVKGRFTISRDNAKNTVYLQMNSLKPDDTAVYYCAAAGLGTVVSEWDYDYDYWGQGTQVTVSSGGSGGSQVQLQESGGGLVQAGGSLRLSCAASGRTFSEYAMGWFRQAPGKEREFVATISWSGGSTYYTDSVKGRFTISRDNAKNTVYLQMNSLKPDDTAVYYCAAAGLGTVVSEWDYDYDYWGQGTQVTVSSGGGGSGGGGSKKKPLDGEYFTLQIRGRERFEMFRELNEALELKDAQAGKEPGGGGGSGGGGSQVQLQESGGGLVQAGGSLRLSCAASGRTFSEYAMGWFRQAPGKEREFVATISWSGGSTYYTDSVKGRFTISRDNAKNTVYLQMNSLKPDDTAVYYCAAAGLGTVVSEWDYDYDYWGQGTQVTVSS
B12 gave a Kd of 195 nM.

B13: COVIC-292 (antibody, V domains shown)
VH: QMQLVQSGPEVKKPGTSVKVSCKASGFTFSGSAVQWVRQARGQRLEWIGWIVVGSGNTNYAQRFQERVTITRDMSTSTAYMELSSLRSEDTAVYYCAAPYCSSTSCRDGFDIWGQGTMVTVSS
VL: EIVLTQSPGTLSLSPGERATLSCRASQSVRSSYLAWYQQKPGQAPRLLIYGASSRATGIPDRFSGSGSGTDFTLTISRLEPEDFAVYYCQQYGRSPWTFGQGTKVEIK
On to B13, for which the affinity, expressed as Kd, was 6.71 nM.

B14: COVIC-317 (antibody)
chain: EVQLLESGGGLVQPGGSLRLSCAASGRTFSEYAMGWFRQAPGKGLEFVSTISWSGGSTYYADSVKGRFTISRDNSKNTLYLQMNSLRAEDTAVYYCAAAGLGTVVSEWDYDYDYWGQGTLVTVSSGGGGSGGGGSASTKGPSVFPLAPSSKSTSGGTAALGCLVKDYFPEPVTVSWNSGALTSGVHTFPAVLQSSGLYSLSSVVTVPSSSLGTQTYICNVNHKPSNTKVDKKVEPKSCDKTHTAPELLGGPSVFLFPPKPKDTLMISRTPEVTCVVVDVSHEDPEVKFNWYVDGVEVHNAKTKPREEQYNSTYRVVSVLTVLHQDWLNGKEYKCKVSNKALPAPIEKTISKAKGQPREPQVYTLPPSRDELTKNQVSLTCLVKGFYPSDIAVEWESNGQPENNYKTTPPVLDSDGSFFLYSKLTVDKSRWQQGNVFSCSVMHEALHNHYTQKSLSLSPGKKKKPLDGEYFTLQIRGRERFEMFRELNEALELKDAQAGKEPGGGGGSGGGGSEVQLLESGGGLVQPGGSLRLSCAASGRTFSEYAMGWFRQAPGKGLEFVSTISWSGGSTYYADSVKGRFTISRDNSKNTLYLQMNSLRAEDTAVYYCAAAGLGTVVSEWDYDYDYWGQGTLVTVSS
In the case of B14, binding was put at a Kd of 41.3 nM.

B15: COVIC-296 (antibody, V domains shown)
VH: EVQLVESGGGLVQPGGSLRLSCAASGITVSSNYMNWVRQAPGKGLEWVSVIYSGGSTFYADSVKGRFTVSRHNSKNTLYLQMNSLRVEDTAVYYCAREGLVGTALAFDYWGQGNLVTVSS
VL: DIQMTQSPSSLSASVGDRVTITCRASQSINNYLNWYQQKPGKAPNLLIYAASSLQSGVPSRFSGSGSGTDFTLTINSLQPEDFATYYCQQSYSTPPYTFGQGTKLEIK
The molecule B15 returned a Kd of 0.501 nM.

B16: COVIC-32 (antibody, V domains shown)
VH: QVQLLESGGGLVQPGGSLRLSCAASGFTFSSYAMSWVRQAPGKGLEWASAISGSGGSTYYADSVEGRFTISRDNSKNTLYLQMNSLRAEDTAVYYCAKDTGYCGDDCYIKLIRGGPDYWGQGTLVTVSS
VL: DIVMTQSPLSLPVTLGQPASISCRSSQSLVYSDGNTFLNWFQQRPGQSPRRLIYQVSNRDSGVPDRFSGSGSGTDFTLKISRVEAEDVGVYYCMQGTHWPRTFGQGTKLEIK
Molecule B16 returned a Kd of 1.76 nM.

B17: COVIC-63 (antibody)
chain: QVQLQESGGGLVQAGGSLRLSCAASGRTFSEYAMGWFRQAPGKEREFVATISWSGGSTYYTDSVKGRFTISRDNAKNTVYLQMNSLKPDDTAVYYCAAAGLGTVVSEWDYDYDYWGQGTQVTVSSGGSGGSQVQLQESGGGLVQAGGSLRLSCAASGRTFSEYAMGWFRQAPGKEREFVATISWSGGSTYYTDSVKGRFTISRDNAKNTVYLQMNSLKPDDTAVYYCAAAGLGTVVSEWDYDYDYWGQGTQVTVSSGGGGSGGGGSEPKSCDKTHTCPPCPAPELLGGKKKPLDGEYFTLQIRGRERFEMFRELNEALELKDAQAGKEPG
As for B17, the Kd came out at 185 nM.
